Data as given in US20230116446A1 (QILU PUGET SOUND BIOTHERAPEUTICS, published 2023).

Legend:
[1] = target: T1, human Claudin 18 splice variant 2 (hCLDN18.2) (human, UniProt P56856-2 1-261); assay: cell-based or functional assay
T1 sequence (looked up): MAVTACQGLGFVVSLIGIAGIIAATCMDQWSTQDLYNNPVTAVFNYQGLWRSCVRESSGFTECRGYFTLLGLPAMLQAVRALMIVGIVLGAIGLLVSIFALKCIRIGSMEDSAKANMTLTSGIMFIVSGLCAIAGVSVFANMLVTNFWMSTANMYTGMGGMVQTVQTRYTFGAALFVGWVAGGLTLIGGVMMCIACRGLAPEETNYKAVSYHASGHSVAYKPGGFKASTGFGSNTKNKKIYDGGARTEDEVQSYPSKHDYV

[2] = target: human SIRPα on monocyte-derived macrophages (human, UniProt P78324 31-504); assay: cell-based or functional assay
Chain of human SIRPα on monocyte-derived macrophages (P78324 31-504): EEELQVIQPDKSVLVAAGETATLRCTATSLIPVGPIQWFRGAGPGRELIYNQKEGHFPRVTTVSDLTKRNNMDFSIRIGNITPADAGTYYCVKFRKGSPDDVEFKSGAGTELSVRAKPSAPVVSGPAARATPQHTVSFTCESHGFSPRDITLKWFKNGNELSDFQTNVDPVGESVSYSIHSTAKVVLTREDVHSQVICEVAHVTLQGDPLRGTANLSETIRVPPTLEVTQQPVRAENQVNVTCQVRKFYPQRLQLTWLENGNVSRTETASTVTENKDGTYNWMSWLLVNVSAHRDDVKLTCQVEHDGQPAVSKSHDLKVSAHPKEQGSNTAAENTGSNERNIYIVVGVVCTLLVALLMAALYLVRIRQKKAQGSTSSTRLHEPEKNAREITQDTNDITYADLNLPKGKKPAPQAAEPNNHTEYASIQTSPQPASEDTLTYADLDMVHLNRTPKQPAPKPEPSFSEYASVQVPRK

[3] = target: T2, His6 tagged soluble monomeric extracellular domain (ECD) of hSIRPα v2 (human); assay: SPR (Biacore T200), antibody captured by anti-human Fc on CM5 chip, monomeric antigen as analyte, 1:1 model
T2 construct: extracellular domain; Made by transient transfection in Expi293 cells; used as monomeric analyte in Biacore; also called huSIRPαv2; huSIRPα-v2
Description: (§1) The experiment is described in Example 8. Antibodies were captured to the CM5 chip surface on which goat anti-human polyclonal antibody (Fc specific) was immobilized. Monomeric huSIRPα-v1 and huSIRPα-v2 were used as analytes and were injected for a 2-minute association period followed by a 5-minute dissociation period. Each concentration was run in duplicates. For human SIRPα v1 the incremental concentrations used are 3.13, 6.25, 12.5, 25, 50, 100, […]; For human SIRPα v2 the incremental concentrations used are 0.78, 1.56, 3.13, 6.25, 12.5, or 25 nM. At the end of each analyte injection, the chip was either regenerated with 10 mM glycine-HC1, pH 1.5 (Panels A-D) for multi-cycle kinetics or not regenerated (Panels E-H) for single-cycle kinetics. Data were evaluated using the Biacore T200 Evaluation Software, version 3.2. Data was double referenced then fit with a 1:1 binding model. Panels A and E indicate the binding of anti-hSIRPα×anti-hCLDN18.2 bispecific antibody to hSIRPα v1, panels B and F indicate the binding of anti-hSIRPα #24 IgG antibody to hSIRPα v1, panels C and G indicate the binding of anti-hSIRPα×anti-hCLDN18.2 bispecific antibody to human SIRPα v2, panels D and H indicate the binding of anti-hSIRPα #24 IgG antibody to human SIRPα v2. The x-axis represents the time (seconds), the y-axis represents the RU (Response Units).
(§2) The His6 tagged soluble monomeric extracellular domain (ECD) of hSIRPα v1 and v2 were made by transient transfection in Expi293 cells. Kinetic analysis was performed using surface plasmon resonance (T200, Cytiva) to compare the binding of the anti-hSIRPα×anti-hCLDN18.2 bispecific antibody (SEQ ID NOs:70 and 74) and the parental anti-hSIRPα #24 IgG antibody (SEQ ID NOs:68 and 74) to antigens hSIRPα v1 and hSIRPα v2 (FIG. 15). Either antibody was captured to the CM5 chip surface (Cytiva) by the immobilized goat-anti-human Fc polyclonal antibody, monomeric antigen hSIRPα v1 or v2 was sequentially injected at 6 different concentrations: huSIRPα v1 at 3.13, 6.25, 12.5, 25, 50, 100 nM while hSIPRα v2 at […] with regeneration by 10 mM Glycine-HCl pH1.5 (FIG. 15, panels A-D) for multi-cycle kinetics or without regeneration (FIG. 15, panels E-H) for single-cycle kinetics.

[4] = target: T3, His6 tagged soluble monomeric extracellular domain (ECD) of hSIRPα v1 (human, UniProt P78324 31-373); assay: as above
T3 construct: extracellular domain; Made by transient transfection in Expi293 cells; used as monomeric analyte in Biacore; also called huSIRPαv1; huSIRPα-v1; not shown: His6 tag
T3 sequence (P78324 31-373): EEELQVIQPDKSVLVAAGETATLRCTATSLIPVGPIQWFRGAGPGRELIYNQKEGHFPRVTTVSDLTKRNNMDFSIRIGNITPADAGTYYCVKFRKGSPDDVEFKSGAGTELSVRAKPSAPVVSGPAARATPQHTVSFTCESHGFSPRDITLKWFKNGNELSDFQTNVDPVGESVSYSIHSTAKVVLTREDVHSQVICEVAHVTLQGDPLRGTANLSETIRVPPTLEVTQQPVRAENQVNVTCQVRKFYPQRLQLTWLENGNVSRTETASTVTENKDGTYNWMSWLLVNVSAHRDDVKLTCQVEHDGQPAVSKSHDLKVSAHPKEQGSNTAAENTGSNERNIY
Description: as §1, §2

[5] = target: T1, human Claudin 18 splice variant 2 …; assay: flow cytometry on Expi293 cells stably expressing hCLDN18.2, APC anti-human IgG detection, gMFI
Description: Cells stably expressing hCLDN18.2 were spun down at 1500 rpm at room temperature for 5 minutes and resuspended in 1×PBS/1% BSA (washing buffer), antibodies at a 1:3 series dilution ranging from 100 nM to 24 pM were added, cells were incubated at RT with shaking for 1 hour. […] Three additional washes were performed to get rid of unbound antibodies, treated samples were run on an LSRII flow cytometer (BD Biosciences) and signal intensity was determined using the geometric MFI of APC using Flow Jo software (BD Biosciences). Curve fitting and EC₅₀ values were obtained using GraphPad Prism 6 software.

B1: anti-hSIRPα×anti-hCLDN18.2 bispecific antibody (bispecific antibody, human IgG1, kappa)
heavy 1: EVQLVESGGGLVKPGGSLRLSCAASGFTFSSYVMSWVRQTPGKGLEWVATISSGGTYTYYPDSVKGRFTLSRDNAKNSLYLQMNSLRAEDTAVYYCASQLTGSEFDYWGQGTTVTVSSASTKGPSVFPLAPSSKSTSGGTAALGCLVKDYFPEPVTVSWNSGALTSGVHTFPAVLQSSGLYSLSSVVTVPSSSLGTQTYICNVNHKPSNTKVDKKVEPKSCDKTHTCPPCPAPELLGGPSVFLFPPKPKDTLMISRTPEVTCVVVDVSHEDPEVKFNWYVDGVEVHNAKTKPREEQYNSTYRVVSVLTVLHQDWLNGKEYKCKVSNKALPAPIEKTISKAKGQPREPQVYTLPPCREEMTKNQVKLTCLVKGFYPSDIAVEWESNGQPENPYKTTPPVLDKDGSFFLYSKLTVDKSRWQQGNVFSCSVMHEALHNHYTQKSLSLSPGK
light 1: DIVLTQSPASLAVSLGERATISCRASESVDLYGTSFMHWYQQKPGQPPKLLIYRASNLESGVPDRFSGSGSRTDFTLTINPLQAEDVATYYCHQSSDELPWTFGGGTKVEIKRTVAAPSVFIFPPSDEQLKSGTASVVCLLNNFYPREAKVQWKVDNALQSGNSQESVTEQDSKDSTYSLSSTLTLSKADYEKHKVYACEVTHQGLSSPVTKSFNRGEC
heavy 2: QVQLVQSGAEVKKPGSSVKVSCKASGYTLTGYWIEWLRQRPGQGLEWMGEILLGSGSIKYNVKFKDRVTITADESTSTAYMELSSLRSEDTAVYYCARKGLRGNSFDYWGQGTLVTVSSASTKGPSVFPLAPSSKSTSGGTAALGCLVDDYFPEPVTVSWNSGALTSGVHTCPACLQSSGLYSLSSVVTVPSSSLGTQTYICNVNHKPSNTKVDKKVEPKSGDKTHTCPPCPAPELLGGPSVFLFPPKPKDTLMISRTPEVTCVVVDVSHEDPEVKFNWYVDGVEVHNAKTKPREEQYNSTYRVVSVLTVLHQDWLNGKEYKCKVSNKALPAPIEKTISKAKGQPREPQVCTLPPSREEMTKNQVDLTCLVDGFYPSDIAVEWESNGQPENDYGTTPPVLDDDGSFFLYSKLTVDKSRWQQGNVFSCSVMHEALHNHYTQKSLSLSPGK
light 2: DIVMTQSPSSLTVSLGEKATISCKSSQSLLNAGNQKSYLTWYQQKPGQPPKRLIYWASTRESGVPDRFSGSGSGTDFTLTISSLQAEDLAVYYCQNDYYYPFTFGQGTKVEIKRTVAAPSVFIFPPSDEQLKSGTAKVVCLLNNFYPREAKVQWKVDNALQSGNSCECVTEQDSKDSTYSLSSTLTLSKADYEKHKVYACEVTHQGLSSPVTKSFNRGES
notes: Four-chain heterodimeric IgG, one Fab arm for each target; made in ExpiCHO cells and purified on protein A; also called anti-hCLDN18.2×hSIRPα bispecific antibody; anti-hSIRPα×hCLDN18.2
[1]
  EC50, ADCP killing of PaTu 8988s cells by monocyte-derived macrophages: 0.172 nM
[2]
  EC50, ADCP killing of PaTu 8988s cells by monocyte-derived macrophages: 0.172 nM
[3]
  Kd: 0.88 nM
  koff: 0.00104 s⁻¹
  kon: 1.18e+06 M⁻¹ s⁻¹
[4]
  Kd: 23.2 nM
  koff: 0.00732 s⁻¹
  kon: 329000 M⁻¹ s⁻¹
[5]
  EC50: 16.9 nM

B2: parental anti-hSIRPα #24 IgG antibody (antibody, V domains shown)
VH: EVQLVESGGGLVKPGGSLRLSCAASGFTFSSYVMSWVRQTPGKGLEWVATISSGGTYTYYPDSVKGRFTLSRDNAKNSLYLQMNSLRAEDTAVYYCASQLTGSEFDYWGQGTTVTVSS
VL: DIVLTQSPASLAVSLGERATISCRASESVDLYGTSFMHWYQQKPGQPPKLLIYRASNLESGVPDRFSGSGSRTDFTLTINPLQAEDVATYYCHQSSDELPWTFGGGTKVEIKR
notes: Bivalent parental IgG; also called anti-SIRPα mAb; anti-hSIRPα clone #24 IgG (WT)
[3]
  Kd: 0.908 nM
  koff: 0.00109 s⁻¹
  kon: 1.21e+06 M⁻¹ s⁻¹
[4]
  Kd: 22.3 nM
  koff: 0.0077 s⁻¹
  kon: 346000 M⁻¹ s⁻¹

B3: parental anti-hCLDN18.2 59F9E1 IgG1 antibody (antibody, V domains shown)
VH: QVQLVQSGAEVKKPGSSVKVSCKASGYTLTGYWIEWLRQRPGQGLEWMGEILLGSGSIKYNVKFKDRVTITADESTSTAYMELSSLRSEDTAVYYCARKGLRGNSFDYWGQGTLVTVSS
VL: DIVMTQSPSSLTVSLGEKATISCKSSQSLLNSGNQKSYLTWYQQKPGQPPKRLIYWASTRESGVPDRFSGSGSGTDFTLTISSLQAEDLAVYYCQNDYYYPFTFGQGTKVEIKR
notes: Humanized IgG1 with two Fab arms; also called aCLDN18.2; anti-hCLDN18.2 clone 59F9E1 IgG1 (WT)
[5]
  EC50: 4.52 nM
